Here are results for two molecules from article PMC6224509 (Nature Communications, 2018).

The target of experiment [1] is T1, human 4-1BB residues 24–186, wild type, His–Avi (human, UniProt Q07011). The experiment is described as follows: cell-based or functional assay.
The target in experiment [2] is T1, human 4-1BB residues 24–186, wild type, …. As to the kind of experiment: SPR; binding kinetics and affinities, monovalent binding of utomilumab and urelumab to wild type and mutant h4-1BB (Supplementary Figure 8); who was immobilised is not given in the source. To be noted: both partners purified. On the technique in general: Surface plasmon resonance follows binding to a sensor surface in real time, without labels.

Experiment [3] deals with T2, human 4-1BB residues 24–186 I132R, His–Avi (Homo sapiens, UniProt Q07011, I132R).
T2 construct: human 4-1BB (CD137, TNFRSF9), residues 24-186, I132R; source: HEK cells, transfected, secreted, purified (NiExcel, Superdex 200); not shown: His8, C-terminal, kept
Described as above. The note with it: both partners purified.

For experiment [4], the target named is T3, human 4-1BB residues 24–186 M101R, His–Avi (Homo sapiens, UniProt Q07011, M101R).
T3 construct: human 4-1BB (CD137, TNFRSF9), residues 24-186, M101R; source: HEK cells, transfected, secreted, purified (NiExcel, Superdex 200); not shown: His8, C-terminal, kept
Described as above. The note with it: both partners purified.

T1 sequence (Q07011 24-186): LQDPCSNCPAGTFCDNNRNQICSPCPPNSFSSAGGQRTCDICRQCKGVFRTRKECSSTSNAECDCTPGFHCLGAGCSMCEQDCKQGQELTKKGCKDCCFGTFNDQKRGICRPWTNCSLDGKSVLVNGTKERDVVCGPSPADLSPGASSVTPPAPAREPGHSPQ
T3 sequence (Q07011 24-186 M101R): as the sequence (Q07011 24-186) above, with M78R counted along it
T2 sequence (Q07011 24-186 I132R): as the sequence (Q07011 24-186) above, with I109R counted along it

B1: urelumab (fully human IgG4 mAb) (antibody, V domains shown)
VH: QVQLQQWGAGLLKPSETLSLTCAVYGGSFSGYYWSWIRQSPEKGLEWIGEINHGGYVTYNPSLESRVTISVDTSKNQFSLKLSSVTAADTAVYYCARDYGPGNYDWYFDLWGRGTLVTVSS
VL: EIVLTQSPATLSLSPGERATLSCRASQSVSSYLAWYQQKPGQAPRLLIYDASNRATGIPARFSGSGSGTDFTLTISSLEPEDFAVYYCQQRSNWPPALTFGGGTKVEIK
For B1, in experiment [1], the “NF-ĸB luciferase reporter in h4-1BB-expressing HEK293 cells, fold induction over unstimulated cells, cross-linked by Pfeiffer cells (FcγRIIB), max 250 nM” value was 2.24 fold and the “NF-ĸB luciferase reporter in h4-1BB-expressing HEK293 cells, fold induction over unstimulated cells, no cross-linking, max 250 nM” value came to 1.99 fold.

B2: urelumab Fab (Fab, V domains shown)
VH: QVQLQQWGAGLLKPSETLSLTCAVYGGSFSGYYWSWIRQSPEKGLEWIGEINHGGYVTYNPSLESRVTISVDTSKNQFSLKLSSVTAADTAVYYCARDYGPGNYDWYFDLWGRGTLVTVSS
VL: EIVLTQSPATLSLSPGERATLSCRASQSVSSYLAWYQQKPGQAPRLLIYDASNRATGIPARFSGSGSGTDFTLTISSLEPEDFAVYYCQQRSNWPPALTFGGGTKVEIK
notes: urelumab heavy chain Fab region; urelumab kappa light chain (captured on an anti-human kappa surface); also called BMS-663513 (Fab); URE-Fab
For B2, the Kd worked out at 22 nM in experiment [2], 18 nM in experiment [3] and 16 nM in experiment [4].

The term Kd denotes the constant that tells how readily two partners part at equilibrium. A low value points to tighter binding.
